Measurements taken from paper PMC9628839, “Structure Based Protein Engineering of Aldehyde Dehydrogenase from Azospirillum brasilense to Enhance Enzyme Activity against Unnatural 3-Hydroxypropionaldehyde” (Journal of Microbiology and Biotechnology, 2021).

B1: AbKGSADH (Azospirillum brasilense; P444F) (protein)
chain: ANVTYTDTQLLIDGEWVDAASGKTIDVVNPATGKPIGRVAHAGIADLDRALAAAQSGFEAWRKVPAHERAATMRKAAALVRERADAIAQLMTQEQGKPLTEARVEVLSAADIIEWFADEGRRVYGRIVPPRNLGAQQTVVKEPVGPVAAFTPWNFPVNQVVRKLSAALATGCSFLVKAPEETPASPAALLRAFVDAGVPAGVIGLVYGDPAEISSYLIPHPVIRKVTFTGSTPVGKQLASLAGLHMKRATMELGGHAPVIVAEDADVALAVKAAGGAKFRNAGQVCISPTRFLVHNSIRDEFTRALVKHAEGLKVGNGLEEGTTLGALANPRRLTAMASVIDNARKVGASIETGGERIGSEGNFFAPTVIANVPLDADVFNNEPFGPVAAIRGFDKLEEAIAEANRLPFGLAGYAFTRSFANVHLLTQRLEVGMLWINQPATFWPEMPFGGVKDSGYGSEGGPEALEPYLVTKSVTVMAV
B2: AbKGSADH (Azospirillum brasilense; S109L) (protein)
chain: ANVTYTDTQLLIDGEWVDAASGKTIDVVNPATGKPIGRVAHAGIADLDRALAAAQSGFEAWRKVPAHERAATMRKAAALVRERADAIAQLMTQEQGKPLTEARVEVLLAADIIEWFADEGRRVYGRIVPPRNLGAQQTVVKEPVGPVAAFTPWNFPVNQVVRKLSAALATGCSFLVKAPEETPASPAALLRAFVDAGVPAGVIGLVYGDPAEISSYLIPHPVIRKVTFTGSTPVGKQLASLAGLHMKRATMELGGHAPVIVAEDADVALAVKAAGGAKFRNAGQVCISPTRFLVHNSIRDEFTRALVKHAEGLKVGNGLEEGTTLGALANPRRLTAMASVIDNARKVGASIETGGERIGSEGNFFAPTVIANVPLDADVFNNEPFGPVAAIRGFDKLEEAIAEANRLPFGLAGYAFTRSFANVHLLTQRLEVGMLWINQPATPWPEMPFGGVKDSGYGSEGGPEALEPYLVTKSVTVMAV
B3: AbKGSADH (Azospirillum brasilense; R281Y) (protein)
chain: ANVTYTDTQLLIDGEWVDAASGKTIDVVNPATGKPIGRVAHAGIADLDRALAAAQSGFEAWRKVPAHERAATMRKAAALVRERADAIAQLMTQEQGKPLTEARVEVLSAADIIEWFADEGRRVYGRIVPPRNLGAQQTVVKEPVGPVAAFTPWNFPVNQVVRKLSAALATGCSFLVKAPEETPASPAALLRAFVDAGVPAGVIGLVYGDPAEISSYLIPHPVIRKVTFTGSTPVGKQLASLAGLHMKRATMELGGHAPVIVAEDADVALAVKAAGGAKFYNAGQVCISPTRFLVHNSIRDEFTRALVKHAEGLKVGNGLEEGTTLGALANPRRLTAMASVIDNARKVGASIETGGERIGSEGNFFAPTVIANVPLDADVFNNEPFGPVAAIRGFDKLEEAIAEANRLPFGLAGYAFTRSFANVHLLTQRLEVGMLWINQPATPWPEMPFGGVKDSGYGSEGGPEALEPYLVTKSVTVMAV
B4: AbKGSADH (Azospirillum brasilense; R281F) (protein)
chain: ANVTYTDTQLLIDGEWVDAASGKTIDVVNPATGKPIGRVAHAGIADLDRALAAAQSGFEAWRKVPAHERAATMRKAAALVRERADAIAQLMTQEQGKPLTEARVEVLSAADIIEWFADEGRRVYGRIVPPRNLGAQQTVVKEPVGPVAAFTPWNFPVNQVVRKLSAALATGCSFLVKAPEETPASPAALLRAFVDAGVPAGVIGLVYGDPAEISSYLIPHPVIRKVTFTGSTPVGKQLASLAGLHMKRATMELGGHAPVIVAEDADVALAVKAAGGAKFFNAGQVCISPTRFLVHNSIRDEFTRALVKHAEGLKVGNGLEEGTTLGALANPRRLTAMASVIDNARKVGASIETGGERIGSEGNFFAPTVIANVPLDADVFNNEPFGPVAAIRGFDKLEEAIAEANRLPFGLAGYAFTRSFANVHLLTQRLEVGMLWINQPATPWPEMPFGGVKDSGYGSEGGPEALEPYLVTKSVTVMAV
B5: AbKGSADH (Azospirillum brasilense; P444L) (protein)
chain: ANVTYTDTQLLIDGEWVDAASGKTIDVVNPATGKPIGRVAHAGIADLDRALAAAQSGFEAWRKVPAHERAATMRKAAALVRERADAIAQLMTQEQGKPLTEARVEVLSAADIIEWFADEGRRVYGRIVPPRNLGAQQTVVKEPVGPVAAFTPWNFPVNQVVRKLSAALATGCSFLVKAPEETPASPAALLRAFVDAGVPAGVIGLVYGDPAEISSYLIPHPVIRKVTFTGSTPVGKQLASLAGLHMKRATMELGGHAPVIVAEDADVALAVKAAGGAKFRNAGQVCISPTRFLVHNSIRDEFTRALVKHAEGLKVGNGLEEGTTLGALANPRRLTAMASVIDNARKVGASIETGGERIGSEGNFFAPTVIANVPLDADVFNNEPFGPVAAIRGFDKLEEAIAEANRLPFGLAGYAFTRSFANVHLLTQRLEVGMLWINQPATLWPEMPFGGVKDSGYGSEGGPEALEPYLVTKSVTVMAV
B6: AbKGSADH (Azospirillum brasilense; R281Q) (protein)
chain: ANVTYTDTQLLIDGEWVDAASGKTIDVVNPATGKPIGRVAHAGIADLDRALAAAQSGFEAWRKVPAHERAATMRKAAALVRERADAIAQLMTQEQGKPLTEARVEVLSAADIIEWFADEGRRVYGRIVPPRNLGAQQTVVKEPVGPVAAFTPWNFPVNQVVRKLSAALATGCSFLVKAPEETPASPAALLRAFVDAGVPAGVIGLVYGDPAEISSYLIPHPVIRKVTFTGSTPVGKQLASLAGLHMKRATMELGGHAPVIVAEDADVALAVKAAGGAKFQNAGQVCISPTRFLVHNSIRDEFTRALVKHAEGLKVGNGLEEGTTLGALANPRRLTAMASVIDNARKVGASIETGGERIGSEGNFFAPTVIANVPLDADVFNNEPFGPVAAIRGFDKLEEAIAEANRLPFGLAGYAFTRSFANVHLLTQRLEVGMLWINQPATPWPEMPFGGVKDSGYGSEGGPEALEPYLVTKSVTVMAV
B7: AbKGSADH (Azospirillum brasilense; P444S) (protein)
chain: ANVTYTDTQLLIDGEWVDAASGKTIDVVNPATGKPIGRVAHAGIADLDRALAAAQSGFEAWRKVPAHERAATMRKAAALVRERADAIAQLMTQEQGKPLTEARVEVLSAADIIEWFADEGRRVYGRIVPPRNLGAQQTVVKEPVGPVAAFTPWNFPVNQVVRKLSAALATGCSFLVKAPEETPASPAALLRAFVDAGVPAGVIGLVYGDPAEISSYLIPHPVIRKVTFTGSTPVGKQLASLAGLHMKRATMELGGHAPVIVAEDADVALAVKAAGGAKFRNAGQVCISPTRFLVHNSIRDEFTRALVKHAEGLKVGNGLEEGTTLGALANPRRLTAMASVIDNARKVGASIETGGERIGSEGNFFAPTVIANVPLDADVFNNEPFGPVAAIRGFDKLEEAIAEANRLPFGLAGYAFTRSFANVHLLTQRLEVGMLWINQPATSWPEMPFGGVKDSGYGSEGGPEALEPYLVTKSVTVMAV
B8: AbKGSADH (Azospirillum brasilense; S109G) (protein)
chain: ANVTYTDTQLLIDGEWVDAASGKTIDVVNPATGKPIGRVAHAGIADLDRALAAAQSGFEAWRKVPAHERAATMRKAAALVRERADAIAQLMTQEQGKPLTEARVEVLGAADIIEWFADEGRRVYGRIVPPRNLGAQQTVVKEPVGPVAAFTPWNFPVNQVVRKLSAALATGCSFLVKAPEETPASPAALLRAFVDAGVPAGVIGLVYGDPAEISSYLIPHPVIRKVTFTGSTPVGKQLASLAGLHMKRATMELGGHAPVIVAEDADVALAVKAAGGAKFRNAGQVCISPTRFLVHNSIRDEFTRALVKHAEGLKVGNGLEEGTTLGALANPRRLTAMASVIDNARKVGASIETGGERIGSEGNFFAPTVIANVPLDADVFNNEPFGPVAAIRGFDKLEEAIAEANRLPFGLAGYAFTRSFANVHLLTQRLEVGMLWINQPATPWPEMPFGGVKDSGYGSEGGPEALEPYLVTKSVTVMAV
B9: AbKGSADH (Azospirillum brasilense) (protein)
chain: ANVTYTDTQLLIDGEWVDAASGKTIDVVNPATGKPIGRVAHAGIADLDRALAAAQSGFEAWRKVPAHERAATMRKAAALVRERADAIAQLMTQEQGKPLTEARVEVLSAADIIEWFADEGRRVYGRIVPPRNLGAQQTVVKEPVGPVAAFTPWNFPVNQVVRKLSAALATGCSFLVKAPEETPASPAALLRAFVDAGVPAGVIGLVYGDPAEISSYLIPHPVIRKVTFTGSTPVGKQLASLAGLHMKRATMELGGHAPVIVAEDADVALAVKAAGGAKFRNAGQVCISPTRFLVHNSIRDEFTRALVKHAEGLKVGNGLEEGTTLGALANPRRLTAMASVIDNARKVGASIETGGERIGSEGNFFAPTVIANVPLDADVFNNEPFGPVAAIRGFDKLEEAIAEANRLPFGLAGYAFTRSFANVHLLTQRLEVGMLWINQPATPWPEMPFGGVKDSGYGSEGGPEALEPYLVTKSVTVMAV
B10: AbKGSADH (Azospirillum brasilense; I288T) (protein)
chain: ANVTYTDTQLLIDGEWVDAASGKTIDVVNPATGKPIGRVAHAGIADLDRALAAAQSGFEAWRKVPAHERAATMRKAAALVRERADAIAQLMTQEQGKPLTEARVEVLSAADIIEWFADEGRRVYGRIVPPRNLGAQQTVVKEPVGPVAAFTPWNFPVNQVVRKLSAALATGCSFLVKAPEETPASPAALLRAFVDAGVPAGVIGLVYGDPAEISSYLIPHPVIRKVTFTGSTPVGKQLASLAGLHMKRATMELGGHAPVIVAEDADVALAVKAAGGAKFRNAGQVCTSPTRFLVHNSIRDEFTRALVKHAEGLKVGNGLEEGTTLGALANPRRLTAMASVIDNARKVGASIETGGERIGSEGNFFAPTVIANVPLDADVFNNEPFGPVAAIRGFDKLEEAIAEANRLPFGLAGYAFTRSFANVHLLTQRLEVGMLWINQPATPWPEMPFGGVKDSGYGSEGGPEALEPYLVTKSVTVMAV
B11: AbKGSADH (Azospirillum brasilense; P444G) (protein)
chain: ANVTYTDTQLLIDGEWVDAASGKTIDVVNPATGKPIGRVAHAGIADLDRALAAAQSGFEAWRKVPAHERAATMRKAAALVRERADAIAQLMTQEQGKPLTEARVEVLSAADIIEWFADEGRRVYGRIVPPRNLGAQQTVVKEPVGPVAAFTPWNFPVNQVVRKLSAALATGCSFLVKAPEETPASPAALLRAFVDAGVPAGVIGLVYGDPAEISSYLIPHPVIRKVTFTGSTPVGKQLASLAGLHMKRATMELGGHAPVIVAEDADVALAVKAAGGAKFRNAGQVCISPTRFLVHNSIRDEFTRALVKHAEGLKVGNGLEEGTTLGALANPRRLTAMASVIDNARKVGASIETGGERIGSEGNFFAPTVIANVPLDADVFNNEPFGPVAAIRGFDKLEEAIAEANRLPFGLAGYAFTRSFANVHLLTQRLEVGMLWINQPATGWPEMPFGGVKDSGYGSEGGPEALEPYLVTKSVTVMAV

Substrate: O=CCCO
Assay: purified protein
Format: biochemical, Azospirillum brasilense
Conditions: 500 μM NAD, 100 mM Tris-HCl pH 8.0, 25 °C, 50 nM enzyme, 0.5-10 mM 3HPA

Point of comparison: B6, Km 5.764 ± 1.462 mM. Against it:
- B1 — within error, 4.714 ± 0.547 mM
- B2 — within error, 4.156 ± 1.377 mM
- B3 — 2.5-fold lower, 2.338 ± 0.372 mM
- B4 — within error, 3.808 ± 0.728 mM
- B5 — within error, 4.204 ± 1.184 mM
- B7 — within error, 4.690 ± 2.996 mM
- B8 — 3.5-fold lower, 1.646 ± 0.726 mM
- B9 — within error, 4.581 ± 0.921 mM
- B10 — within error, 4.593 ± 2.814 mM
- B11 — within error, 3.512 ± 2.070 mM

Point of comparison: B4, kcat 21.9 ± 1.8 s⁻¹. Against it:
- B1 — within error, 19.5 ± 1.04 s⁻¹
- B2 — within 1.5-fold, 17 ± 2.5 s⁻¹
- B3 — within 1.5-fold, 26.6 ± 1.56 s⁻¹
- B5 — within error, 18.8 ± 2.36 s⁻¹
- B6 — within 1.5-fold, 31.5 ± 3.94 s⁻¹
- B7 — within error, 17.3 ± 5.1 s⁻¹
- B8 — 3.6-fold lower, 6 ± 0.877 s⁻¹
- B9 — within error, 21.5 ± 1.99 s⁻¹
- B10 — 3.6-fold lower, 6.12 ± 1.69 s⁻¹
- B11 — 3.3-fold lower, 6.59 ± 1.58 s⁻¹

Point of comparison: B2, kcat/Km 4100 M⁻¹ s⁻¹. Against it:
- B1 — within 1.5-fold, 4140 M⁻¹ s⁻¹
- B3 — 2.8-fold higher, 11400 M⁻¹ s⁻¹
- B4 — within 1.5-fold, 5760 M⁻¹ s⁻¹
- B5 — within 1.5-fold, 4480 M⁻¹ s⁻¹
- B6 — within 1.5-fold, 5470 M⁻¹ s⁻¹
- B7 — within 1.5-fold, 3700 M⁻¹ s⁻¹
- B8 — within 1.5-fold, 3640 M⁻¹ s⁻¹
- B9 — within 1.5-fold, 4700 M⁻¹ s⁻¹
- B10 — 3.1-fold lower, 1330 M⁻¹ s⁻¹
- B11 — 2.2-fold lower, 1880 M⁻¹ s⁻¹
